Test results from patent publication US9029105B2, “Microorganism producing L-methionine precursor and method of producing L-methionine and organic acid from the L-methionine precursor” (CJ Cheiljedang Corporation, priority 2006, dated 2015).

B1: Leptospira meyeri MetY: O-acetylhomoserine sulfhydrylase derived from Leptospira meyeri (protein, UniProt P94890 1-442, looked up)
O-acetyl-L-homoserine …: MVGPSGESMPRNFKPETIALHGGQEPDPTTTSRAVPLYQTTSYVFKDTDHAARLFGLQEFGNIYTRLMNPTTDVLEKRVAALEGGVAALATASGQSAEMLALLNIVEAGQEIVASSSLYGGTYNLLHYTFPKLGIKVHFVDQSDPENFRKASNDKTRAFYAETLGNPKLDTLDIAAVSKVAKEVGVPLVIDNTMPSPYLVNPLKHGADIVVHSLTKFLGGHGTSIGGIIIDGGSFNWGNGKFKNFTEPDPSYHGLKFWEVFGKFEPFGGVNIAFILKARVQGLRDLGPAISPFNAWQILQGVETLPLRMERHSGNALKVAEFLQKHPKIEWVNYPGLSTDKNYATAKKYHERGLFGAIVGFEIKGGVEKAKKFIDGLELFSLLANIGDAKSLAIHPASTTHQQLTGPEQISAGVTPGFVRLSVGLENIDDILVDLEEALKNI
B2: Pseudomonas aurogenosa MetZ: O-succinylhomoserine sulfhydrylase derived from Pseudomonas aeruginosa, cell extract enzyme solution (protein, UniProt P55218 1-403, looked up)
O-succinylhomoserine …: MTQDWDAGRLDSDLEGAAFDTLAVRAGQRRTPEGEHGEALFTTSSYVFRTAADAAARFAGEVPGNVYSRYTNPTVRTFEERIAALEGAEQAVATASGMSAILALVMSLCSSGDHVLVSRSVFGSTISLFDKYFKRFGIQVDYPPLSDLAAWEAACKPNTKLFFVESPSNPLAELVDIAALAEIAHAKGALLAVDNCFCTPALQQPLKLGADVVIHSATKYIDGQGRGMGGVVAGRGEQMKEVVGFLRTAGPTLSPFNAWLFLKGLETLRIRMQAHSASALALAEWLERQPGIERVYYAGLPSHPQHELARRQQSGFGAVVSFDVKGGRDAAWRFIDATRMVSITTNLGDTKTTIAHPATTSHGRLSPEDRARAGIGDSLIRVAVGLEDLDDLKADMARGLAAL
modifications: cell extract
notes: O-succinylhomoserine sulfhydrylase derived from Pseudomonas aeruginosa, cell extract enzyme solution
B3: Escherichia Coli K12 MetB: cystathionine gamma synthase derived from E. coli, cell extract enzyme solution (protein, UniProt P00935 1-386, looked up)
Cystathionine gamma-synthase: MTRKQATIAVRSGLNDDEQYGCVVPPIHLSSTYNFTGFNEPRAHDYSRRGNPTRDVVQRALAELEGGAGAVLTNTGMSAIHLVTTVFLKPGDLLVAPHDCYGGSYRLFDSLAKRGCYRVLFVDQGDEQALRAALAEKPKLVLVESPSNPLLRVVDIAKICHLAREVGAVSVVDNTFLSPALQNPLALGADLVLHSCTKYLNGHSDVVAGVVIAKDPDVVTELAWWANNIGVTGGAFDSYLLLRGLRTLVPRMELAQRNAQAIVKYLQTQPLVKKLYHPSLPENQGHEIAARQQKGFGAMLSFELDGDEQTLRRFLGGLSLFTLAESLGGVESLISHAATMTHAGMAPEARAAAGISETLLRISTGIEDGEDLIADLENGFRAANKG

How the values were obtained:
Format in all cases: biochemical
[1] = Conversion reaction of O-acetylhomoserine with methylmercaptan by enzyme solutions (DTNB, OD415); details: OAHS as a substrate
Protocol: (§1) First, O-succinylhomoserine (Sigma, USA) was dissolved in 0.1 M potassium phosphate buffer (pH 7.5) with the concentration of 3 mM. Pyridoxal 5′-phosphate (Sigma, USA) used as a coenzyme was added into the reaction solution with the final concentration of 10 μM. Methylmercaptan (Methylmercaptan, Tokyo Kasei Organic Chemicals, Japan) used as another substrate was added into the reaction solution with the final concentration of 2 mM. 1 ml of the reaction solution was placed in 37° C., to which 10 μL of each enzyme solution (protein conc.: 5 mg/ml) was added. 100 μL of the reaction solution was collected every 5-10 minutes and added into 900 μL of 4 mg/ml DTNB (Sigma, USA) solution. OD415 was measured to confirm the on-going of the reaction.
DTNB was reacted with SH group of methylmercaptan remaining in the reaction solution and thus synthesized a yellow substance. Thus, whether the reaction was going on or not was checked by observing the disappearance of yellow color of the reaction solution resulted from the conversion reaction of methylmercaptan into methionine.
Experiment was performed with O-acetylhomoserine by the same manner as described in Example <3-20>. O-acetylhomoserine was purified from the supernatant of fermented solution. The same reaction solutions and enzyme solutions as used for the experiment with O-succinylhomoserine were used for the reaction. […]

[2] = HPLC of final methionine and acetic acid after one-hour reaction with O-acetylhomoserine; details: from O-acetylhomoserine
Protocol: as §1
(§2) Experiment was performed with O-acetylhomoserine by the same manner as described in Example <3-20>. O-acetylhomoserine was purified from the supernatant of fermented solution. The same reaction solutions and enzyme solutions as used for the experiment with O-succinylhomoserine were used for the reaction. […] Upon completion of one-hour reaction, HPLC was performed to confirm the final productions of methionine and […].

[3] = Feed-back inhibition of converting enzyme by methionine, OAHS as substrate; details: presence of methionine
Protocol: as §2
Feed-back inhibition in the presence or absence of methionine was identified by the same manner as described in Examples <3-20> and <3-21>. The reaction solutions were prepared by the same manner above and the same reaction was performed by adding or not adding 5 g/L of methionine in the each reaction solution. The reaction speed in the reaction solution without methionine was regarded as 100%, based on which the remaining activity in the presence of methionine was calculated as %.

[4] = HPLC of final methionine and succinic acid after one-hour reaction with O-succinylhomoserine; details: from O-succinylhomoserine
Protocol: as §1
Upon completion of one-hour reaction, HPLC was performed to confirm the final productions of methionine and succinic acid.

Molecule	enzyme activity with O-acetylhomoserine (FIG. 6), in words [1]	amount of Acetic acid [2] [g/L]	amount of Methionine [2] [g/L]	inhibition of enzyme activity by methionine, in words [3]	amount of Methionine [4] [g/L]	amount of Succinic acid [4] [g/L]
B1	high enzyme activities	0.05	0.15	inhibited by methionine	–	–
B2	–	–	–	–	0.22	0.17
B3	–	–	–	–	0.14	0.1
